Measurements published in patent US20210095041A1 (SURFACE ONCOLOGY, published 2021).
Numbering of substitutions follows the chain as printed. Numbers in names are those of the source.

What was measured:
recombinant mouse CD39 = biological target: T1, recombinant mouse CD39 (mouse, UniProt P55772 38-478, limits assumed); test: BLI (Octet), clone 22 amine-coupled to AR2G biosensor, recombinant mouse CD39 as analyte
T1 sequence (looked up): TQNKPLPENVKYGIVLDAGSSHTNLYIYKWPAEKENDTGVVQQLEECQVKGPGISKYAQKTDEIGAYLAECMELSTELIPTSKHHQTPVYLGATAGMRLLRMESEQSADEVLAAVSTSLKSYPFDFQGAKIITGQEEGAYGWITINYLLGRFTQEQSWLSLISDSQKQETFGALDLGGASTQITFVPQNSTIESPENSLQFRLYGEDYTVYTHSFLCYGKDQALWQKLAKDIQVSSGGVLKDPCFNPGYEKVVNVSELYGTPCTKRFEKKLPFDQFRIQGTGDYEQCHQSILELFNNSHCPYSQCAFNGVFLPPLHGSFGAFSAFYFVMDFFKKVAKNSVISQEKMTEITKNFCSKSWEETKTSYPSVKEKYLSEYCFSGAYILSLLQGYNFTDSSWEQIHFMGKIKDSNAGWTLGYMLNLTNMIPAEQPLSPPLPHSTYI
Protocol: (§1) In the first configuration, an Anti-Human Immunoglobulin G (IgG) Fragment Crystallizable (Fc) Capture (AHC) biosensor was used first to capture 1 μg/mL of clone 22 as the ligand onto 8 biosensors and subsequently to measure association (600 s) and dissociation (900 s) of 0 to 5 μg/mL of recombinant CD39 from either human, rat, or cynomolgus monkey as the analyte. A second configuration was required for recombinant mouse CD39 binding analysis, as the positive control antibody was a rat IgG and would not bind to the AHC biosensor. Recombinant mouse CD39 binding to clone 22 was analyzed with this second configuration to achieve a direct comparison with the positive control antibody. […] Subsequently, association (600 s) and dissociation (1200 s) of recombinant mouse CD39 (analyte) was measured at a concentration range of 0 to 5.0 μg/mL for both antibodies. […] Under both configurations, association constants (kₐ) and dissociation constants (kd) were determined and KD was calculated for each antibody where binding of the analyte was observed (clone 22 with recombinant CD39 from both human and cynomolgus monkey and Duha59 positive control antibody with recombinant mouse CD39). Kinetic binding parameters were not determined for interactions where binding was not observed (clone 22 with recombinant CD39 from both mouse and rat).

recombinant rat CD39 = biological target: T2, recombinant rat CD39 (rat, UniProt P97687 38-478, limits assumed); test: BLI (Octet), clone 22 captured on AHC biosensor, recombinant rat CD39 as analyte
T2 sequence (looked up): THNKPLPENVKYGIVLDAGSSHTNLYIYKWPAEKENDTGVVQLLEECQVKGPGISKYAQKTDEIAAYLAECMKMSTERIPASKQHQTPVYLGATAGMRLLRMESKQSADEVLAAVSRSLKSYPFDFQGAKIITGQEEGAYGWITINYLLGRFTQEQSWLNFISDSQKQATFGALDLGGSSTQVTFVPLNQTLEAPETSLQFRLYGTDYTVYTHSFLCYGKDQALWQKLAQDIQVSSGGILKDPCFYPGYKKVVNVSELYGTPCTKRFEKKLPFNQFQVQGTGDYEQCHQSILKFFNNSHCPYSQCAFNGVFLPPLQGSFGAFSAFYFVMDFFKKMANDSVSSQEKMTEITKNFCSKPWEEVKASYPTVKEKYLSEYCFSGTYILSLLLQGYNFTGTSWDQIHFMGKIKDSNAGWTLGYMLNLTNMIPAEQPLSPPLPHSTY
Protocol: as §1

[1] = biological target: T3, recombinant cynomolgus monkey CD39 (cynomolgus monkey, UniProt A0A7N9DGH8 38-478); test: BLI (Octet), clone 22 captured on AHC biosensor, recombinant cynomolgus monkey CD39 as analyte, 1:1 model
T3 sequence: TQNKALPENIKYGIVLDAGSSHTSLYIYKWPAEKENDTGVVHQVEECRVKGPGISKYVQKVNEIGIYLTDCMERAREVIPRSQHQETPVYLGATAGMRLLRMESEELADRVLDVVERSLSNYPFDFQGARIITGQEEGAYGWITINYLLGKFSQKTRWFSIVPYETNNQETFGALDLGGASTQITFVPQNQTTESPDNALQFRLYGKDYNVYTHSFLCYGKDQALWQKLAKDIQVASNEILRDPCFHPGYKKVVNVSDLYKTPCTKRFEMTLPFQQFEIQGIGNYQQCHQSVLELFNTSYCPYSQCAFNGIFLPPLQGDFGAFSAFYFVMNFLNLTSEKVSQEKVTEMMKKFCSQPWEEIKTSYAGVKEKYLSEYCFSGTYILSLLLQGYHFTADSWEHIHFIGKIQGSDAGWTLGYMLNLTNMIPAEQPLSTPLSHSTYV
Protocol: as §1

recombinant human CD39 = biological target: T4, recombinant human CD39 (human, UniProt P49961 38-478); test: BLI (Octet), clone 22 captured on AHC biosensor, recombinant human CD39 as analyte, 1:1 model
T4 construct: The clone 1-20 assays used carrier-free human CD39-His lacking transmembrane domains (R&D Systems 4397-EN-010); also called rhCD39
T4 sequence (looked up): T3 sequence with I10V, Y57F, I184V, T193I, V292I, N331K, S354A
Protocol: as §1

B1: clone 22 (antibody, human IgG4 S228P, kappa, V domains shown)
VH: QVQLVQSGAEVKKPGSSVKVSCKASGGTFSSEGISWVRQAPGQGLEWMGSILPIFGTANYAQKFQGRVTITADESTSTAYMELSSLRSEDTAVYYCAREAGYYRYRYFDLWGRGTLVTVSS
VL: EIVMTQSPATLSVSPGERATLSCRASQSVSSNLAWYQQKPGQAPRLLIYGASTRATGIPARFSGSGSGTEFTLTISSLQSEDFAVYYCQQHALWPLTFGGGTKVEIKR
notes: Human IgG4 with the S228P mutation and a human kappa light chain; also called anti-CD39 antibody clone 22; antibody clone number 22
Recombinant mouse CD39
  binding result: no binding (tested: 0 to 5.0 µg/mL recombinant mouse CD39)
Recombinant rat CD39
  binding result: no binding (tested: 0 to 5 µg/mL recombinant rat CD39)
[1]
  Kd: 0.406 nM
Recombinant human CD39
  Kd: 1.11 nM
